Earlier results in paper PMC5811428.

Target: C5aR (Homo sapiens) (UniProt P21730)
UniProt P21730, sequence (P21730 whole entry): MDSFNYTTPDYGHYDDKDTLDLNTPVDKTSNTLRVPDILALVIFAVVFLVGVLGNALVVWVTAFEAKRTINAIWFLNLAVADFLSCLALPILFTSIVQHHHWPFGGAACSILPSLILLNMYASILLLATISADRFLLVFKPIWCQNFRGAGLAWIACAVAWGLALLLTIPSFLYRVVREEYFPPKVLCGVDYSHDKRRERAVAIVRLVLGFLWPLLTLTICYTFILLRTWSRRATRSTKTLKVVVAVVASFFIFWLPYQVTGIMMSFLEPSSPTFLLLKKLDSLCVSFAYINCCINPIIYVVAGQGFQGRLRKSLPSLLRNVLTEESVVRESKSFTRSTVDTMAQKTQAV

For “hC5a C-terminal peptide CT peptide (from UniProt P01031)”, the Kd is given as 150 µM.
